Paper PMC11969024 (2025)

B1: peptide HD2 (from tick evasin EVA4) / CXCL11 (biotinylated, synthetic) (parent complex)
chain 1: EEDDYTAYAPLTCYFT
chain 2: FPMFKRGRCLCIGPGVKAVKVADIEKASIMYPSNNCDKIEVIITLKENKGQRCLNPKSKQARLIIKKVERKNF

Variants of: B1

In order of rising enrichment:
1. chain 1 C13M  -6.65 log2 (difference from the parental peptide)
2. chain 1 C13F  -5.76 log2 (difference from the parental peptide)
3. chain 1 D4M  -5.76 log2 (difference from the parental peptide)
4. chain 1 D4F  -5.51 log2 (difference from the parental peptide)
5. chain 1 T6C  -5.45 log2 (difference from the parental peptide)
6. chain 1 L11D  -5.22 log2 (difference from the parental peptide)
7. chain 1 Y14T  -5.08 log2 (difference from the parental peptide)
8. chain 1 C13E  -5.07 log2 (difference from the parental peptide)
9. chain 1 D4I  -4.93 log2 (difference from the parental peptide)
10. chain 1 Y5N  -4.84 log2 (difference from the parental peptide)
11. chain 1 F15G  -4.79 log2 (difference from the parental peptide)
12. chain 1 E2H  -4.78 log2 (difference from the parental peptide)
13. chain 1 E1P  -4.68 log2 (difference from the parental peptide)
14. chain 1 P10M  -4.64 log2 (difference from the parental peptide)
15. chain 1 E2T  -4.37 log2 (difference from the parental peptide)
16. chain 1 T12A  -4.34 log2 (difference from the parental peptide)
17. chain 1 F15R  -4.18 log2 (difference from the parental peptide)
18. chain 1 E1N  -4.13 log2 (difference from the parental peptide)
19. chain 1 D3S  -4.11 log2 (difference from the parental peptide)
20. chain 1 D4L  -4.01 log2 (difference from the parental peptide)
21. chain 1 T12Q  -3.76 log2 (difference from the parental peptide)
22. chain 1 P10E  -3.45 log2 (difference from the parental peptide)
23. chain 1 D3F  -3.31 log2 (difference from the parental peptide)
24. chain 1 T16Y  -3.28 log2 (difference from the parental peptide)
25. chain 1 F15L  -2.87 log2 (difference from the parental peptide)
26. chain 1 T16V  -2.73 log2 (difference from the parental peptide)
27. chain 1 D4W  -2.72 log2 (difference from the parental peptide)
28. chain 1 Y8S  -2.63 log2 (difference from the parental peptide)
29. chain 1 E2S  -2.62 log2 (difference from the parental peptide)
30. chain 1 T12F  -2.38 log2 (difference from the parental peptide)
31. chain 1 T16Q  -2.38 log2 (difference from the parental peptide)
32. chain 1 L11C  -2.08 log2 (difference from the parental peptide)
33. chain 1 T6Q  -2.01 log2 (difference from the parental peptide)
34. chain 1 F15S  -1.86 log2 (difference from the parental peptide)
35. chain 1 L11T  -1.48 log2 (difference from the parental peptide)
36. chain 1 C13V  -1.39 log2 (difference from the parental peptide)
37. chain 1 Y5I  -1.31 log2 (difference from the parental peptide)
38. chain 1 A7H  -1.06 log2 (difference from the parental peptide)
39. chain 1 A9R  -1.01 log2 (difference from the parental peptide)
40. chain 1 Y8I  -0.997 log2 (difference from the parental peptide)
41. chain 1 T16M  -0.985 log2 (difference from the parental peptide)
42. chain 1 T12E  -0.922 log2 (difference from the parental peptide)
43. chain 1 F15M  -0.451 log2 (difference from the parental peptide)
44. chain 1 T6I  -0.429 log2 (difference from the parental peptide)
45. chain 1 A7E  -0.399 log2 (difference from the parental peptide)
46. chain 1 D3N  -0.358 log2 (difference from the parental peptide)
47. chain 1 T6H  -0.342 log2 (difference from the parental peptide)
48. chain 1 F15T  -0.0704 log2 (difference from the parental peptide)
49. chain 1 T12I  0.0621 log2 (difference from the parental peptide)
50. chain 1 Y8F  0.146 log2 (difference from the parental peptide)
51. chain 1 L11H  0.15 log2 (difference from the parental peptide)
52. chain 1 A9Q  0.165 log2 (difference from the parental peptide)
53. chain 1 A7S  0.213 log2 (difference from the parental peptide)
54. chain 1 F15C  0.343 log2 (difference from the parental peptide)
55. chain 1 A7L  0.413 log2 (difference from the parental peptide)
56. chain 1 T16P  0.438 log2 (difference from the parental peptide)
57. chain 1 T6R  0.535 log2 (difference from the parental peptide)
58. chain 1 T16L  0.663 log2 (difference from the parental peptide)
59. chain 1 Y8N  0.757 log2 (difference from the parental peptide)
60. chain 1 E2M  0.915 log2 (difference from the parental peptide)
61. chain 1 T16E  1.12 log2 (difference from the parental peptide)
62. chain 1 A7N  1.13 log2 (difference from the parental peptide)
63. chain 1 A9T  1.25 log2 (difference from the parental peptide)
64. chain 1 T6P  1.34 log2 (difference from the parental peptide)
65. chain 1 T6S  1.57 log2 (difference from the parental peptide)
66. chain 1 A7M  1.69 log2 (difference from the parental peptide)
67. chain 1 E1Y  1.69 log2 (difference from the parental peptide)
68. chain 1 T12V  1.82 log2 (difference from the parental peptide)
69. chain 1 A9E  2.26 log2 (difference from the parental peptide)
70. chain 1 L11M  2.73 log2 (difference from the parental peptide)
71. chain 1 A7D  2.88 log2 (difference from the parental peptide)
72. chain 1 A7Q  3.76 log2 (difference from the parental peptide)
73. chain 1 Y5W  5.39 log2 (difference from the parental peptide)
74. chain 1 P10D  8.22 log2 (difference from the parental peptide)
75. chain 1 T6W  9.7 log2 (difference from the parental peptide)
